Assay results reported in patent US20220315908A1, “NOVEL GARDNERELLA ENDOLYSINS AND USES THEREOF” (priority 2019, published 2022).

What was measured:
[1] = tested on: all tested Gardnerella strains; experiment: MIC and MBC microbroth dilution, stated over all tested strains; assay type: cell-based; conditions: first round: […]10^7 CFU/ml, 48 h anaerobic (FIG. 14)
Protocol: One of the main deficiencies in the treatment of BV is the high rate of recurrence in many women, which leads to repeated administration of antibiotics and concomitant destabilization of the microbiome and other side effects. The minimal inhibitory concentration (MIC) and minimal bactericidal concentration (MBC) on Gardnerella cells of the strains also used for the endolysin activity assays were then measured using the method described in Reference Example 6 and 7. […] Essentially, Gardnerella suspensions at 2.5×10^7 CFU/ml were incubated with the concentration of antibiotics as indicated and incubated for 48 h at 37° C. under anaerobic conditions. […] OD(610) was measured at the beginning and the end of the experiment. At the end of the experiment, 2 ul of each reaction mix was spotted on agar to determine the MBC.
The conditions under which MIC and MBC were measured are more rigorous than the standard.
Example 7—Activity assays of a representative (H2B10) of domain swapped endolysins on the growth in suspension of different Gardnerella strains. […] The conditions under which MBC was measured are more rigorous than the standard. […] In general, it is known, that antibiotics only insufficiently eradicate the Gardnerella biofilm, a hallmark of BV, which is one suspected reason for the reported very high recurrence rate of BV. Despite leaving residual viable biofilm, antibiotics wipe parts of the beneficial organisms of the vaginal microbiome which then opens an ecological niche for other pathogens, e.g. fungi.
Bacteria were plated from cryo stock on BD Choc Agar plates (Gardnerella) and incubated at 37° C. for 48 h under anaerobic conditions. Colonies were scraped from the plate, resuspended in Hardy Broth or NYC-III-HS-pH 5.0, and the suspension adjusted to OD (610 or 620 nm as indicated) 0.05. It has to be noted that two Tecan Microplate readers, having respectively a 610 nm or 620 nm filter, have been used interchangeably in the experiments. Although it doesn't make any difference for the experiments, the exact wavelength used is specified in each example. Antibiotics were prepared as 20× stocks for each of the required final concentrations. […] OD (610-620 as indicated) at the start of the reaction was measured, then the plate was incubated at 37° C. for 48 h under anaerobic conditions. After that, the OD (610-620 as indicated) was measured again for MIC determination, where MIC was defined as the lowest concentration of antibiotic where the OD (610-620 as indicated) was not above the level measured at the beginning of the experiment. […] After incubation, cell growth on each spot was evaluated, and the MBC defined as the lowest concentration of antibiotics where no bacteria grew on the plate.

[2] = tested on: G. vaginalis sensu stricto strain Gv_9; experiment: Quantitative reduction in viable CFU assay in bacterial suspension; assay type: cell-based, Gardnerella vaginalis sensu stricto; conditions: for median surviving cells after incubation with imidazole: 5×10^7 CFU/ml start, 5 hours 37° C. anaerobic
Protocol: The lysis activity on the four main species of Gardnerella of 91 constructs (natural and domain-swapped endolysins) was quantitatively assessed using the method described in Reference Example 2. […]
(§1) The results are shown in FIGS. 8A to 8D together with Tables 5A to 5C. In FIGS. 8A to 8D, the logarithmic Y axis depicts the count of surviving cells. The dotted line indicates the limit of detection (LOD) given by plating of 2 ul of the reaction mix (500 CFU/ml). Each combination of the natural 10 H-domains and the natural 9 B-regions was assessed, including the natural endolysins (H1B1, H2B2, H3B3, etc.), plus H6B6. […] The activity of each construct was measured on each of the 4 main Gardnerella species G. vaginalis sensu stricto, G. leopoldii, G. piotii, and G. swidsinkii. All conditions have been measured in triplicate. The survival after 5 hours incubation at pH 5.0 under anaerobic conditions with endolysins vs. buffer was measured by quantitative plating. The values indicate the log 10 of the ratio of surviving CFU for treated vs. untreated cells. The average of the triplicate measurements is used. In tables 5A and 5B, high negative log 10 values, e.g. −6.7, −5.5, −4.8 etc. are associated with high enzymatic activity, while log 10 values closer to zero or even positive log 10 values are associated with low or no enzymatic activity. […] Inversely, a reduction value of −3.7 means a 10^3.7-fold (=5012-fold) reduction of viable CFU in treated sample vs. untreated control.
(§2) Gardnerella cells were recovered from cryo stock by plating on Chocolate Agar plates (Beckton Dickinson) and incubating for 48 h at 37° C. under anaerobic conditions. For Lactobacilli, BD Schaedler/5% sheep blood agar plates were used instead. Colonies were scraped from the plate, resuspended in Hardy Broth or NYC-III-HS-5.0 at the pH as indicated, and the suspension adjusted to OD (610 or 620 nm as indicated) 0.1. It has to be noted that two Tecan Microplate readers, having respectively a 610 nm or 620 nm filter, have been used interchangeably in the experiments. Although it doesn't make any difference for the experiments, the exact wavelength used is specified in each example. If not stated otherwise, 90 μl cell suspension was mixed with 10 μl endolysin solution, for the different species/endolysin combinations, in 384-well plates. OD(610-620 nm as indicated) was measured at the beginning of the reaction and at the end, either as two measurement points or as a continuous kinetic in a Tecan F200 Microplate reader. The reactions were incubated for 5 hours (or otherwise the time indicated) at 37° C. under anaerobic, micro-aerophilic or aerobic conditions as indicated. Anaerobic conditions intend that oxygen was fully depleted from the container in which the bacteria are incubated (Sigma-Aldrich anaerobic jar or sealable lunch box) with an anaerobic sachet, and the lack of oxygen was confirmed with an anaerobic indicator inside the container. Where micro-aerophilic conditions are indicated, the candle-in-a-jar method was used (tea candle lit in an appropriate sealable container, which reduces oxygen levels until the flame dies out). Then each well was diluted in 5 steps (10^−1 to 10^−5) using 96-U-well bottom plates, and 2 μl of each dilution of each reaction mix are plated on BD Chocolate agar plates or BD Schaedler/5% sheep blood agar plates for Gardnerella and Lactobacilli, respectively, for detecting and quantifying surviving CFU. Detection plates were incubated at 37° C. for 48 hours under anaerobic conditions.

[3] = tested on: four Gardnerella strains (Gv_9, Gv_11, Gv_17, Gv_23); experiment: CFU reduction averaged across the four Gardnerella strains, with activity ranks; assay type: cell-based
Protocol: (§3) The lysis activity on the four main species of Gardnerella of 91 constructs (natural and domain-swapped endolysins) was quantitatively assessed using the method described in Reference Example 2. Briefly, 90 ul 5e7 CFU/ml of the indicated strain were incubated for 5 hours at pH 5.0 under anaerobic conditions with 10 ul endolysin (concentration adjusted to 0.2 mg/ml where possible, see Table 4).
as §1
as §2, with “out).” for “out). Then each well was diluted in 5 steps (10^−1 to 10^−5) using 96-U-well bottom plates, and 2 μl of each dilution of each reaction mix are plated on BD Chocolate agar plates or BD Schaedler/5% sheep blood agar plates for Gardnerella and Lactobacilli, respectively, for detecting and quantifying surviving CFU. Detection plates were incubated at 37° C. for 48 hours under anaerobic conditions.”

[4] = tested on: G. swidsinskii strain Gv_23; experiment: Quantitative reduction in viable CFU assay in bacterial suspension; assay type: cell-based, Gardnerella swidsinskii; conditions: 5 hours, pH 5.0, anaerobic, 10 ul endolysin (0.2 mg/ml where possible) + 90 ul 5e7 CFU/ml, average of triplicate
Protocol: as §3, §1, §2

G. piotii strain Gv_17 = experiment: as above; assay type: cell-based, Gardnerella piotii; conditions: 5 hours, pH 5.0, anaerobic, 10 ul endolysin (0.2 mg/ml where possible) + 90 ul 5e7 CFU/ml, average of triplicate
Protocol: as §3, §1, §2

[5] = tested on: G. leopoldii strain Gv_11; experiment: as above; assay type: cell-based, Gardnerella leopoldii; conditions: 5 hours, pH 5.0, anaerobic, 10 ul endolysin (0.2 mg/ml where possible) + 90 ul 5e7 CFU/ml, average of triplicate
Protocol: as §3, §1, §2

In the case of `CCC[C@@H]1C[C@@H](C(=O)N[C@@H]([C@H]2O[C@H](SC)[C@H](O)[C@@H](O)[C@H]2O)[C@H](C)Cl)N(C)C1` [Clindamycin], the “MIC over all Gardnerella strains” value [1] is reported as over 8 µg/mL.

With `c1c[nH]cn1` [imidazole] the “median surviving cells after incubation with imidazole” value ([2]; pH 6.0) was 1×10^6 CFU/ml and the “median surviving cells after incubation with imidazole” value ([2]; pH 7.0) was 3×10^4 CFU/ml.

B1: H6B6: natural Gardnerella prophage endolysin from strain 1400E, truncated at the C-terminus (protein)
chain: MSKKGIDVSVWQGDIDFNAVKASGVEFVIIRAGYGIGCKDKWFEQNYRKAKTCGLDVGAYWYSYANSGFEAAEEAQSCVNMLSGKSFEYPVYFDLEEKSQLNRGRAFCDSLITSFCSKLESCGYYAGFYTSLSTANNLVSAHVRNRYALWIAQWNTHCDYQGSYGLWQYSSSGSVPGVAGRVDMDYAYKNYPSIIKNAGLNGCKNGGSNQAARTSSIDDVAREVINGAWGNGNERKQRLTQAGYDYASVAK
modifications: EL6_strain_1400E_frameshift
notes: natural Gardnerella prophage endolysin from strain 1400E, truncated at the C-terminus
B1 was tested, and the “log 10 of the ratio of surviving CFU for treated vs. untreated cells” value (“log 10 of the ratio of surviving CFU” for short) ([2]; Gv_9, 5 hours, pH 5.0, anaerobic, 10 ul endolysin (0.2 mg/ml where possible) + 90 ul 5e7 CFU/ml, average of triplicate) was 0.1 log 10, the “killing activity against Gardnerella, in words” value ([3]; across the Gardnerella strains tested) was “complete inactivity” and the “average of the log 10 activities of each construct across the four Gardnerella strains” value ([3]; pH 5.0, 5 hours, anaerobic) was 0.0 log 10. For the same molecule, the “activity rank of all endolysins” value ([3]; rank 1-91, based on the data of Table 5B) was 86, the “log 10 of the ratio of surviving CFU” value [4] was −0.1 log 10 and the “log 10 of the ratio of surviving CFU” value (G. piotii strain Gv_17) was −0.2 log 10. The “log 10 of the ratio of surviving CFU” value [5] was 0.2 log 10.
